# Target: human angiotensin-converting enzyme 2 (hACE2) (UniProt Q9BYF1)
# Assay: SPR
# Details: parent: est. 1.5 nM; read off a plot
row,Substance,Kd [nM]
1,BA.2.86 spike receptor-binding domain (RBD) K403R,1
2,BA.2.86 spike receptor-binding domain (RBD) H445V,0.46
3,BA.2.86 spike receptor-binding domain (RBD) ins483V,0.88
4,BA.2.86 spike receptor-binding domain (RBD) D450N,0.52
5,BA.2.86 spike receptor-binding domain (RBD) P486F,0.39
6,BA.2.86 spike receptor-binding domain (RBD) W452L,0.58
7,BA.2.86 spike receptor-binding domain (RBD) H505Y,0.58
8,BA.2.86 spike receptor-binding domain (RBD) N417K,0.62
9,BA.2.86 spike receptor-binding domain (RBD) K481N,0.66
10,BA.2.86 spike receptor-binding domain (RBD) K484A,1.2
11,BA.2.86 spike receptor-binding domain (RBD) L455S,4.3
12,BA.2.86 spike receptor-binding domain (RBD) N417K; H505Y,0.27
13,BA.2.86 spike receptor-binding domain (RBD) N417K; H505Y; L455F; F456L,0.53
14,BA.2.86 spike receptor-binding domain (RBD) N354Q,1.6
15,BA.2.86 spike receptor-binding domain (RBD) L455F; F456L,0.8

# Source: publication PMC11282955
